The source of these data is paper PMC6317713.

What all share (assay): two-hybrid
For assay [1], the target named is PRO0 (DIG10.3 Y34F, Y99F, Y101F), progesterone ligand-binding domain.
The target of assay [2] is DIG10.3 monomer (DIG0), computationally designed digoxigenin-binding protein.
The target in assay [3] is DIG1b (DIG10.3 E83R), charge swap design.
Assay [4] has as its target DIG2b (DIG10.3 I102A), knob-in-hole design.

For the substance DIG1 (DIG10.3 E83V) (designed binder), the fold luciferase activity with both ligands over either ligand alone in assay [1] is 20 fold. The fold activation of the luciferase reporter with digoxigenin in assay [2] amounted to 400 fold. Turning to “PRO0 (DIG10.3 Y34F, Y99F, Y101F), progesterone ligand-binding domain (designed binder)”, the fold increase in reporter activity with 1 uM progesterone in assay [1] is 200 fold. Substance “DIG1a (DIG10.3 R116E), charge swap design (designed binder)” came in with a fold increase in reporter activation with digoxigenin in assay [3] above 500 fold. Regarding “DIG10.3 monomer (DIG0), computationally designed digoxigenin-binding protein (designed binder)”, the fold increase in luciferase activity with 50 uM digoxigenin in assay [2] was 20 fold.

As for “DIG2a (DIG10.3 I102M, V104F), knob-in-hole design (designed binder)”, the fold increase in reporter activation with digoxigenin in assay [4] is above 500 fold.
